Reference: PMC10540216, “Activity Guided Azide-methyllysine Photo-trapping for Substrate Profiling of Lysine Demethylases” (Journal of the American Chemical Society, 2023)

B1: DDX5_HUMAN (protein, UniProt P17844 1-614, looked up)
Probable ATP-dependent RNA …: MSGYSSDRDRGRDRGFGAPRFGGSRAGPLSGKKFGNPGEKLVKKKWNLDELPKFEKNFYQEHPDLARRTAQEVETYRRSKEITVRGHNCPKPVLNFYEANFPANVMDVIARQNFTEPTAIQAQGWPVALSGLDMVGVAQTGSGKTLSYLLPAIVHINHQPFLERGDGPICLVLAPTRELAQQVQQVAAEYCRACRLKSTCIYGGAPKGPQIRDLERGVEICIATPGRLIDFLECGKTNLRRTTYLVLDEADRMLDMGFEPQIRKIVDQIRPDRQTLMWSATWPKEVRQLAEDFLKDYIHINIGALELSANHNILQIVDVCHDVEKDEKLIRLMEEIMSEKENKTIVFVETKRRCDELTRKMRRDGWPAMGIHGDKSQQERDWVLNEFKHGKAPILIATDVASRGLDVEDVKFVINYDYPNSSEDYIHRIGRTARSTKTGTAYTFFTPNNIKQVSDLISVLREANQAINPKLLQLVEDRGSGRSRGRGGMKDDRRDRYSAGKRGGFNTFRDRENYDRGYSSLLKRDFGAKTQNGVYSAANYTNGSFGSNFVSAGIQTSFRTGNPTGTYQNGYDSTQQYGSNVPNMHNGMNQQAYAYPATAAAPMIGYPMPTGYSQ
B2: MCCA_HUMAN (protein, UniProt Q96RQ3 42-725, looked up)
Methylcrotonoyl-CoA …: TTATGRNITKVLIANRGEIACRVMRTAKKLGVQTVAVYSEADRNSMHVDMADEAYSIGPAPSQQSYLSMEKIIQVAKTSAAQAIHPGCGFLSENMEFAELCKQEGIIFIGPPPSAIRDMGIKSTSKSIMAAAGVPVVEGYHGEDQSDQCLKEHARRIGYPVMIKAVRGGGGKGMRIVRSEQEFQEQLESARREAKKSFNDDAMLIEKFVDTPRHVEVQVFGDHHGNAVYLFERDCSVQRRHQKIIEEAPAPGIKSEVRKKLGEAAVRAAKAVNYVGAGTVEFIMDSKHNFCFMEMNTRLQVEHPVTEMITGTDLVEWQLRIAAGEKIPLSQEEITLQGHAFEARIYAEDPSNNFMPVAGPLVHLSTPRADPSTRIETGVRQGDEVSVHYDPMIAKLVVWAADRQAALTKLRYSLRQYNIVGLHTNIDFLLNLSGHPEFEAGNVHTDFIPQHHKQLLLSRKAAAKESLCQAALGLILKEKAMTDTFTLQAHDQFSPFSSSSGRRLNISYTRNMTLKDGKNNVAIAVTYNHDGSYSMQIEDKTFQVLGNLYSEGDCTYLKCSVNGVASKAKLIILENTIYLFSKEGSIEIDIPVPKYLSSVSSQETQGGPLAPMTGTIEKVFVKAGDKVKAGDSLMVMIAMKMEHTIKSPKDGTVKKVFYREGAQANRHTPLVEFEEEESDKRESE
B3: CAPR1_HUMAN (protein, UniProt Q14444 2-709, looked up)
Caprin-1: PSATSHSGSGSKSSGPPPPSGSSGSEAAAGAGAAAPASQHPATGTGAVQTEAMKQILGVIDKKLRNLEKKKGKLDDYQERMNKGERLNQDQLDAVSKYQEVTNNLEFAKELQRSFMALSQDIQKTIKKTARREQLMREEAEQKRLKTVLELQYVLDKLGDDEVRTDLKQGLNGVPILSEEELSLLDEFYKLVDPERDMSLRLNEQYEHASIHLWDLLEGKEKPVCGTTYKVLKEIVERVFQSNYFDSTHNHQNGLCEEEEAASAPAVEDQVPEAEPEPAEEYTEQSEVESTEYVNRQFMAETQFTSGEKEQVDEWTVETVEVVNSLQQQPQAASPSVPEPHSLTPVAQADPLVRRQRVQDLMAQMQGPYNFIQDSMLDFENQTLDPAIVSAQPMNPTQNMDMPQLVCPPVHSESRLAQPNQVPVQPEATQVPLVSSTSEGYTASQPLYQPSHATEQRPQKEPIDQIQATISLNTDQTTASSSLPAASQPQVFQAGTSKPLHSSGINVNAAPFQSMQTVFNMNAPVPPVNEPETLKQQNQYQASYNQSFSSQPHQVEQTELQQEQLQTVVGTYHGSPDQSHQVTGNHQQPPQQNTGFPRSNQPYYNSRGVSRGGSRGARGLMNGYRGPANGFRGGYDGYRPSFSNTPNSGYTQSQFSAPRDYSGYQRDGYQQNFKRGSGQSGPRGAPRGRGGPPRPNRGMPQMNTQQVN

The molecules below were run on KDM4A-I71AzF (assay: CASI: photo-crosslinking with HEK293T cell extracts, StrepTactin enrichment and LC-MS/MS proteomics). Settings: sheet "Final results but with 0.01".
Format: binding, human
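Also: lysates from HEK293T cells pretreated with a KDM4 inhibitor to raise proteome methylation, affinity-purified after ±UV, gel-resolved, trypsin-digested, with exclusive unique peptides per protein averaged per condition.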

**Q.** With B1 as the molecule, how does the “Fold change (+UV/-UV)” value read?
**A.** The value was 1.6.

**Q.** For B2, which “Fold change (+UV/-UV)” value is on record?
**A.** Its value is 0.

**Q.** With B3 as the molecule, how does the “Fold change (+UV/-UV)” value read?
**A.** The value was 0.5.
